The record followed here is US20220411536A1 (NUMAB THERAPEUTICS, published 2022).

Assay [1] addresses CD3e on Jurkat PD-1 NFAT reporter T cells or on T cells of human PBMCs (human, UniProt P07766 23-207). As to the kind of experiment: cell-based or functional assay.
The target of assay [2] is T1, recombinant human CD3E ECD (SinoBiological, cat. 10977-H08H) (human, UniProt P07766 23-126).
T1 construct: extracellular domain; bought protein; also called CD3s
The assay can be described thus: SPR, immobilised CD3e ECD, two-state model (kd1). In general terms: SPR reads the build-up and loss of mass on a sensor chip optically.

Assay [3] has as its target T2, recombinant human Her2 ECD (SinoBiological, cat. 10004-HCCH) (human, UniProt P04626 23-652).
T2 construct: extracellular domain; bought protein
The assay can be described thus: SPR, immobilised Her2 ECD.

The target of assay [4] is T3, recombinant human IL-23R (custom-made by Trenzyme) (human, UniProt Q5VWK5 24-355).
T3 sequence (looked up): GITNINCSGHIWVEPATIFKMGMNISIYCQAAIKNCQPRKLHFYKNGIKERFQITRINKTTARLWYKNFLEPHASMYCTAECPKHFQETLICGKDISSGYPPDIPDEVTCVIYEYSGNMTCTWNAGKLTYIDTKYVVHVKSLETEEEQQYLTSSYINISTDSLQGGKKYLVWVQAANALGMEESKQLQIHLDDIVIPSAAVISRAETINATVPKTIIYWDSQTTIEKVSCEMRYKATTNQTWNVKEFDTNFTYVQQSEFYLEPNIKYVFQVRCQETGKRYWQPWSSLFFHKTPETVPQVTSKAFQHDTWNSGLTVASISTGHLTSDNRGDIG
As to the kind of experiment: SPR, immobilised IL-23R.

Assay [5] deals with T1, recombinant human CD3E ECD …. The assay can be described thus: SPR, immobilised CD3e ECD, two-state model (ka1).
Assay [6] concerns the target T4, human PD-L1 expressed on cells (CHO-PD-L1, HCC1954, HCC827) (human, UniProt Q9NZQ7 19-290).
T4 construct: whole, on cells; also called hPD-L1; PD-L1 expressing cells
As to the kind of experiment: flow cytometry, inhibition of biotinylated PD-1 binding to HCC1954 cells. A general note: Flow cytometry measures light scatter and fluorescence of single cells or particles in a stream.

Assay [7] deals with T4, human PD-L1 expressed on cells …. As to the kind of experiment: flow cytometry, inhibition of biotinylated PD-1 binding to HCC827 cells.
Assay [8] has as its target T5, Fc-tagged human PD-L1 extracellular domain (SinoBiological, cat. 10084-H02H) (human, UniProt Q9NZQ7 19-238).
T5 construct: extracellular domain; also called hPD-L1; not shown: Fc tag of the bought protein
As to the kind of experiment: SPR, captured Fc-PD-L1 ECD, steady state.

For another assay, the target named is T6, human serum albumin (human, UniProt P02768 25-609).
T6 construct: also called HSA; human SA
The assay can be described thus: SPR, immobilised HSA, pH 5.5.

The target in another assay is T7, mouse serum albumin (mouse, UniProt P07724 25-608).
T7 construct: also called MSA; mouse SA
T7 sequence (P07724 25-608 limits assumed): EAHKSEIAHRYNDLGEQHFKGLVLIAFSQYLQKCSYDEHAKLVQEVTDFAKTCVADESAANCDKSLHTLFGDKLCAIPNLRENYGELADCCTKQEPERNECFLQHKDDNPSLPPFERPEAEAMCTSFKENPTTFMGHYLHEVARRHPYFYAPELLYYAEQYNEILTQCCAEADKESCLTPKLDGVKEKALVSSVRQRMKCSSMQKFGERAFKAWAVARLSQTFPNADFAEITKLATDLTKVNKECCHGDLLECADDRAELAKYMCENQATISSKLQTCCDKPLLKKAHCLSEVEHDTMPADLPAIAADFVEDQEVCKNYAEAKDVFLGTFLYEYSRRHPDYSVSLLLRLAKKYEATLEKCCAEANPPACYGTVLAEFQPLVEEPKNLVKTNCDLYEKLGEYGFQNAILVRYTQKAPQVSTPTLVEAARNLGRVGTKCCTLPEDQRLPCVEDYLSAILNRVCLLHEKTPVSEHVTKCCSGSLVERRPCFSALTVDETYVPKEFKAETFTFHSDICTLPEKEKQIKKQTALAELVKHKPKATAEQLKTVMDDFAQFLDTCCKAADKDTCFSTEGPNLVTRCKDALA
As to the kind of experiment: SPR, immobilised MSA, pH 5.5.

In assay [9] the target is T1, recombinant human CD3E ECD …. The assay can be described thus: SPR, immobilised CD3e ECD, two-state model.
Assay [10] deals with T5, Fc-tagged human PD-L1 extracellular …. The assay can be described thus: SPR, captured Fc-PD-L1 ECD, kinetic.
For assay [11], the target named is T1, recombinant human CD3E ECD …. The assay can be described thus: SPR, immobilised CD3e ECD, two-state model; overall KD of the two-state fit.
Assay [12] shares this target. As to the kind of experiment: SPR, immobilised CD3e ECD, two-state model (kd1); kd1, first step of the two-state fit.
Assay [13] shares this target. The assay can be described thus: SPR, immobilised CD3e ECD, two-state model (ka1); ka1, first step of the two-state fit.
Assay [14] deals with T5, Fc-tagged human PD-L1 extracellular …. The assay can be described thus: SPR, captured Fc-PD-L1 ECD, scFv analyte, kinetic.
For assay [15] the target is unchanged. The assay can be described thus: SPR, alanine mutants of 33-03-G02.

T1 sequence (P07766 23-126): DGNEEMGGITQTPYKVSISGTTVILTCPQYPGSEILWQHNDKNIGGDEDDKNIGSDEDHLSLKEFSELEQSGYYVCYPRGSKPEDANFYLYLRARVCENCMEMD

B1: PRO1544 (multispecific antibody)
chain 1: DIQMTQSPSSLSASVGDRVTITCQASQSINDYLAWYQQKPGKAPKLLIYKASTLASGVPSRFSGSGSGTDFTLTISSLQPEDFATYYCQAAYIITDIDNVFGTGTKVTVLGGGGGSGGGGSGGGGSGGGGSQVQLQESGPGLVKPSETLSLTCKVSGFSFSSGYDMCWIRQPPGKGLEWIGCVVAGSVDITYYASWAKGRVTISVDSSKNQFSLKLSSVTAADTAVYYCARKDAYSDAFNLWGQGTLVTVSSGGGGSGGGGSDVVMTQSPSSLSASVGDRVTITCQASQIISSRSAWYQQKPGQPPKLLIYQASKLASGVPSRFSGSGSGTDFTLTISSLQPEDFATYYCQCTYIDSNFGAFGCGTKLTVLGGGSGGSDIQMTQSPSSLSASVGDRVTITCQSSQSVFSNNYLAWFQQKPGQSPKRLIYSASTLASGVPSRFSGSGSGTDFTLTISSLQPEDFATYYCLGSYACSSADCYVFGTGTKVTVLG
chain 2: not shown
Consider B1, for which the “IC50, NFAT reporter, CHO-PD-L1 (A2 clone) cells” value in assay [1] worked out at 10.5 nM. The “IC50, NFAT reporter, HCC1954 cells” value in assay [1] is 2.29 nM. In addition, the “rel. max. activation vs PRO1497, NFAT reporter, HCC1954 cells” value in assay [1] was 78%. The “rel. max. activation vs PRO1497 on HCC1954, NFAT reporter, CHO-PD-L1 (A2 clone) cells” value in [1] was determined as 42%. Also, the koff in assay [2] is 0.00516 s⁻¹; in [3] it was 5.56e-05 s⁻¹; in the assay with human serum albumin, 0.000121 s⁻¹; with mouse serum albumin, 0.00112 s⁻¹; in assay [10], 0.00117 s⁻¹. The dissociation constant Kd in assay [3] stood at 0.354 nM; in assay [8], 809 nM; in the assay with human serum albumin, 0.87 nM; with mouse serum albumin it was 19.5 nM; in assay [9], 12.7 nM; in assay [10], 284 nM. The kon is 157000 M⁻¹ s⁻¹ in assay [3]; 222000 M⁻¹ s⁻¹ in [5]; 139000 M⁻¹ s⁻¹ in the assay with human serum albumin; 57500 M⁻¹ s⁻¹ with mouse serum albumin; 4120 M⁻¹ s⁻¹ in assay [10]. Further, in assay [4], the binding result is “no binding (tested: 90 nM highest concentration)”. Besides, the IC50 came to 0.528 µg/mL in [6] and 46 µg/mL in assay [7]. Further, the KD1 in assay [9] stood at 23.2 nM. Moreover, in assay [9], the kd2 is 0.0042 s⁻¹.

B2: PRO1545 (multispecific antibody)
chain 1: B1 chain 1
chain 2: DIQMTQSPSSLSASVGDRVTITCQASENIYSFLAWYQQKPGKAPKLLIYSASKLAAGVPSRFSGSGSGTDFTLTISSLQPEDFATYYCQQTNRYSNPDIYNVFGTGTKVTVLGGGGGSGGGGSGGGGSGGGGSEVQLVESGGGLVQPGGSLRLSCAASGIDFNSNYYMCWVRQAPGKGLEWIGCIYVGSHVNTYYANWAKGRFTISRDNSKNTVYLQMNSLRAEDTAVYYCATSGSSVLYFKFWGQGTLVTVSSGGGGSGGGGSEVQLVESGGGLVQPGGSLRLSCAASGFSLSSYDMSWVRQAPGKGLAWIGASYASGPTYYASWAKGRFTISRDNSKNTVYLQMNSLRAEDTATYFCARGGWTGTSHSNIWGQGTLVTVSSGGGSGGGSEVQLVESGGGLVQPGGSLRLSCAASGFSFSSSYWICWVRQAPGKCLEWVGCVFTGDGTTYYASWAKGRFTISRDNSKNTVYLQMNSLRAEDTATYFCARPVSVYYYGMDLWGQGTLVTVSS
Take B2: the “IC50, NFAT reporter, CHO-PD-L1 (A2 clone) cells” value in assay [1] was 26 nM. Also, in assay [1], the “IC50, NFAT reporter, HCC1954 cells” value came to 12.2 nM. In assay [1], the “rel. max. activation vs PRO1497, NFAT reporter, HCC1954 cells” value was determined as 67%. For the same molecule, the “rel. max. activation vs PRO1497 on HCC1954, NFAT reporter, CHO-PD-L1 (A2 clone) cells” value in assay [1] came out at 59%. For the same molecule, the Kd was found to be 16.7 nM in assay [11]; 1.52 nM in assay [4]; 879 nM in [8]; 0.693 nM with human serum albumin; 15.9 nM with mouse serum albumin; 1130 nM in assay [10]. Also, the koff in [12] was found to be 0.00645 s⁻¹; in assay [4], 0.000471 s⁻¹; in the assay with human serum albumin, 0.000119 s⁻¹; in the assay with mouse serum albumin, 0.00108 s⁻¹; in assay [10] it was 0.0022 s⁻¹. For the same molecule, the binding result in [3] is on record as “no binding (tested: 90 nM highest concentration)”. Further, the kon was found to be 309000 M⁻¹ s⁻¹ in assay [4]; 169000 M⁻¹ s⁻¹ in assay [13]; 171000 M⁻¹ s⁻¹ in the assay with human serum albumin; 67900 M⁻¹ s⁻¹ with mouse serum albumin; 1950 M⁻¹ s⁻¹ in assay [10]. Besides, the results for the IC50 in assay [6] and in assay [7] were 4.14 µg/mL and 88.1 µg/mL, respectively. The KD1 in [9] was found to be 38.2 nM. In [9], the kd2 worked out at 0.00432 s⁻¹.

B3: PRO1076 (scFv, V domains shown)
VH: QVQLQESGPGLVKPSETLSLTCKVSGFSFSSGYDMCWIRQPPGKGLEWIGCVVAGSVDITYYASWAKGRVTISVDSSKNQFSLKLSSVTAADTAVYYCARKDAYSDAFNLWGQGTLVTVSS
VL: DIQMTQSPSSLSASVGDRVTITCQASQSINDYLAWYQQKPGKAPKLLIYKASTLASGVPSRFSGSGSGTDFTLTISSLQPEDFATYYCQQAYIITDIDNVFGTGTKVTVLG
notes: also called 33-03-G02 VL-G109A
Turning to B3, in [14], binding was put at a Kd of 7.52 nM, the dissociation rate constant (koff) is 0.0135 s⁻¹ and the on-rate (kon) is 1.8e+06 M⁻¹ s⁻¹. Besides, in [15], the “fold reduction of affinity vs the original domain” value is > 100 fold.

Broadly, the koff is the rate constant with which the complex falls apart. By Kd is commonly meant the concentration at which binding is half-saturated. As a reminder, the kon is the second-order rate constant of association. In general, IC50 refers to the concentration that gives 50% inhibition.
